Results taken from patent publication US20250101446A1, “METHOD FOR GENETIC TRANSFORMATION OF PLANT ORGANELLE GENOME AND USES THEREOF” (Solar Grants Biotechnology Inc., priority 2022, published 2025).

Tests used:
[1] = test system: human metastatic breast cancer cell line MDA-MB-231; assay: IL-6 secretion by MDA-MB-231 cells (P1 stimulation, plantakine pre-incubation; ELISA); format: cell-based; settings: pre-incubated 3 h at the indicated concentrations
Experimental: IL-6 secretion by the human metastatic breast cancer cell line MDA-MB-231 into the conditioned media was measured by ELISA. The cells were pre-incubated for 3 h in the presence of plant-produced recombinant IL-38 or IL-37b at the indicated concentrations (ng/ml) prior to stimulation with peptide P1 (10 mM). PBS (1×) was added to the control. Shown are the average results of 3 independent experiments. ** P<0.01; * P<0.05, compared with the control.
Correct folding of plant-produced IL-38 and IL-37b anti-inflammatory cytokines was assessed by enzyme-linked immunosorbent assay (ELISA) using the DuoSet Human IL-38/IL-1F10 kit (R&D systems) and the Human IL-37/IL-1F7 uncoated ELISA kit (Invitrogen), respectively, following the instructions of the manufacturers. Secreted IL-6 was assessed using the Human IL-6 Uncoated ELISA kit (Invitrogen).

LPS-stimulated PBMCs = assay: Cytokine secretion from LPS-stimulated PBMCs treated with plantakines (multiplex Luminex); format: cell-based, human
Experimental: The bioactivity of our plantakines IL-37b and IL-38 was assessed by monitoring the secretion of 11 cytokines, generally regarded as inflammatory markers, from PBMCs stimulated with an IA. Freshly isolated human PBMCs were subjected to various treatments-combinations of the IAs with the plantakines at different concentrations. Two different model IAs were used, either the bacterial lipopolysaccharides (LPS) or a lectin from Phaseolus vulgaris (phytohaemagglutinin, PHA); each of the IAs was applied onto cells separately, each IA was applied at two concentrations: […]; PHA at 5 and 10 μg/mL. Each IA at each concentration was applied in combination with one of the two plantakines, each of them at three different concentrations: 1, 10 and 100 ng/ml of the monomeric forms present in the purified extracts. Also included were treatments comprised of either IA at their lower concentrations, in combination with both plantakines at 10 ng/ml concentration in order to assess possible synergistic effects. Cells with only IAs applied represented the reference (positive controls for each concentration), cells without any treatment represented the basal level (negative control). The levels of eleven different pro-inflammatory cytokines secreted into the medium from the PBMCs-GM-SCF, IFNγ. TNFα, IL-1α, IL-1β, IL-6, IL-8, IL-22, IL12, IL-17 and IL-10 were compared between the treatments and the controls. We applied Generalized Estimating Equation (GEE) model for the statistical data analysis. This statistical approach allows for nested observations and was used to test the effects of the plantakines IL-37b and IL-38 and their dosage in the context of IA-stimulated PBMCs inflammatory responses.
After isolation, the PBMCs from each donor separately were counted, plated in equal numbers per well and stimulated for 24 h with the applied treatments. Control wells on the plate contained media only (as basal level controls), and LPS and PHA (as positive controls at their corresponding concentrations). After the 24 h treatments stimulation the PBMCs' culture supernatants were used in the multiplex Luminex platform-assisted analysis of the concentrations of the 11 secreted pro-inflammatory cytokines.
The whole blood from 5 random human donors was collected in ACD Vacutainer tubes and immediately processed for isolation of PBMCs by gradient density centrifugation using Lympholyte. […] 5% CO2 and >80% humidity. PBMCs were treated with one of two IAs at 2 concentrations each ([…]; PHA at 5 and 10 μg/mL) in combination with two test items (plant-produced IL-37b or IL-38) at three concentrations each (1, 10 and 100 ng/ml), based on the monomeric form amounts estimated with densitometry (ImageJ). Each treatment was tested in triplicates. Control wells contained media only (negative control, basal level of detection) and the examined IAs at both tested concentrations as the positive controls. The PBMCs were incubated for 24 hours after the stimulation for analysis of the levels of the secreted cytokines that were determined in the culture supernatant using a multiplex immunoassay (MAGPix®, Luminex), analytes were selected from the Milliplex panel HCYTOMAG-60K, sensitivity range of […]. All parameters of the Milliplex panel cytokines analysis using Luminex platform were validated (Millipore-Sigma).
Non-linear logarithm transformation was performed to address non-normality of distribution of Luminex-derived numeric data. Generalized Estimating Equation (GEE) method was used in the analysis of nested (correlated) structure of the data. Secreted inflammatory cytokine values were used as dependent variables and test item (plantakines) with dosage as independent predictors (factors). Separate analyses were conducted for each of the 11 monitored cytokines and each inflammatory agent/concentration combination. Analysis was performed using SPSS software version 27 using the level of significance 0.05 (p-values <0.05 are reported as statistically significant). […]

B1: plant-produced recombinant human IL-38, mature form C2-W152 with C-terminal 7xHIS tag (ligand)
chain: CSLPMARYYIIKYADQKALYTRDGQLLVGDPVADNCCAEKICILPNRGLARTKVPIFLGIQGGSRCLACVETEEGPSLQLEDVNIEELYKGGEEATRFTFFQSSSGSAFRLEAAAWPGWFLCGPAEPQQPVQLTKESEPSARTKFYFEQSWHHHHHHH
notes: range 2-152; also called rhIL-38; plantakine IL-38
[1]
  attenuating effect on P1-induced IL-6 secretion (in words): dose-dependent
LPS-stimulated PBMCs; 1 ng/mL, LPS 150 pg/mL
  secreted GM-CSF level modulation vs positive control: −59.4%, p < 0.001
  secreted IL-1α level modulation vs positive control: −25.9%, p < 0.001
  secreted IL-1β level modulation vs positive control: −27.4%, p < 0.001
  secreted IL-6 level modulation vs positive control: −7.7%, p = 0.178
  secreted IL-8 level modulation vs positive control: 22.1%, p = 0.625
  secreted IL-10 level modulation vs positive control: −14.8%, p = 0.040
  secreted IL-12 level modulation vs positive control: 14.9%, p = 0.607
  secreted IL-17 level modulation vs positive control: −21.3%, p = 0.004
  secreted IL-22 level modulation vs positive control: −38.1%, p = 0.065
  secreted TNFα level modulation vs positive control: −36.9%, p = 0.035
LPS-stimulated PBMCs; 1 ng/mL, LPS 300 pg/mL
  secreted GM-CSF level modulation vs positive control: −14.1%, p = 0.118
  secreted IFNγ level modulation vs positive control: −16.5%, p = 0.006
  secreted IL-1α level modulation vs positive control: −7.7%, p = 0.178
  secreted IL-1β level modulation vs positive control: −13.1%, p < 0.001
  secreted IL-6 level modulation vs positive control: −5.8%, p = 0.323
  secreted IL-10 level modulation vs positive control: 6.2%, p = 0.006
  secreted IL-12 level modulation vs positive control: 1.9%, p = 0.906
  secreted IL-17 level modulation vs positive control: −28.8%, p < 0.001
  secreted IL-22 level modulation vs positive control: −40.0%, p < 0.001
  secreted TNFα level modulation vs positive control: −49.3%, p = 0.184
LPS-stimulated PBMCs; 10 ng/mL, LPS 150 pg/mL
  secreted GM-CSF level modulation vs positive control: 7.3%, p = 0.230
  secreted IFNγ level modulation vs positive control: −16.5%, p = 0.012
  secreted IL-1α level modulation vs positive control: −14.8%, p < 0.001
  secreted IL-1β level modulation vs positive control: −13.1%, p = 0.002
  secreted IL-6 level modulation vs positive control: 0.0%, p = 1.000
  secreted IL-8 level modulation vs positive control: 8.3%, p = 0.639
  secreted IL-10 level modulation vs positive control: −3.9%, p = 0.264
  secreted IL-12 level modulation vs positive control: 51.1%, p = 0.522
  secreted IL-17 level modulation vs positive control: −16.5%, p = 0.012
  secreted IL-22 level modulation vs positive control: −29.4%, p = 0.008
  secreted TNFα level modulation vs positive control: −44.0%, p = 0.116
LPS-stimulated PBMCs; 10 ng/mL, LPS 300 pg/mL
  secreted GM-CSF level modulation vs positive control: 29.1%, p < 0.001
  secreted IFNγ level modulation vs positive control: −24.4%, p = 0.018
  secreted IL-1α level modulation vs positive control: 2.0%, p = 0.550
  secreted IL-1β level modulation vs positive control: −2.0%, p = 0,550
  secreted IL-6 level modulation vs positive control: 2.0%, p = 0.736
  secreted IL-8 level modulation vs positive control: −5.8%, p = 0.469
  secreted IL-10 level modulation vs positive control: 8.3%, p = 0.178
  secreted IL-12 level modulation vs positive control: 10.6%, p = 0.586
  secreted IL-17 level modulation vs positive control: −31.6%, p < 0.001
  secreted IL-22 level modulation vs positive control: −45.0%, p < 0.001
  secreted TNFα level modulation vs positive control: −40.5%, p = 0.311
LPS-stimulated PBMCs; 100 ng/mL, LPS 150 pg/mL
  secreted GM-CSF level modulation vs positive control: 21.2%, p = 0.013
  secreted IFNγ level modulation vs positive control: −40.5%, p = 0.008
  secreted IL-1α level modulation vs positive control: −3.9%, p = 0.380
  secreted IL-1β level modulation vs positive control: −13.1%, p = 0.002
  secreted IL-6 level modulation vs positive control: 0.0%, p = 1.000
  secreted IL-8 level modulation vs positive control: −9.5%, p = 0.077
  secreted IL-10 level modulation vs positive control: −30.2%, p < 0.001
  secreted IL-12 level modulation vs positive control: 17.2%, p = 0.544
  secreted IL-17 level modulation vs positive control: −24.4%, p = 0.025
  secreted IL-22 level modulation vs positive control: −23.7%, p = 0.241
  secreted TNFα level modulation vs positive control: −34.3%, p = 0.232
LPS-stimulated PBMCs; 100 ng/mL, LPS 300 pg/mL
  secreted GM-CSF level modulation vs positive control: 88.8%, p < 0.001
  secreted IFNγ level modulation vs positive control: −21.3%, p < 0.001
  secreted IL-1α level modulation vs positive control: 6.2%, p = 0.188
  secreted IL-1β level modulation vs positive control: 2.0%, p = 0.648
  secreted IL-6 level modulation vs positive control: 0.0%, p = 1.000
  secreted IL-8 level modulation vs positive control: 46.2%, p = 0.500
  secreted IL-10 level modulation vs positive control: −28.8%, p < 0.001
  secreted IL-12 level modulation vs positive control: 17.4%, p = 0.271
  secreted IL-17 level modulation vs positive control: −30.2%, p < 0.001
  secreted IL-22 level modulation vs positive control: −31.8%, p = 0.003
  secreted TNFα level modulation vs positive control: −13.1%, p = 0.581
LPS-stimulated PBMCs; LPS 150 pg/mL
  Decreased secretion: number of treatments with statistically significant modulation: 16
  Increased secretion: number of treatments with statistically significant modulation: 1
LPS-stimulated PBMCs; LPS 300 pg/mL
  Decreased secretion: number of treatments with statistically significant modulation: 12
  Increased secretion: number of treatments with statistically significant modulation: 2
